Legend:
[1] = molecular target: Ferredoxin:NADP+ oxidoreductase (FNR), endogenous, complex-associated (C. reinhardtii (endogenous in strain cc124)) (UniProt P53991)
[2] = molecular target: Ferredoxin:NADP+ oxidoreductase (FNR), C. reinhardtii, recombinant soluble (C. reinhardtii) (UniProt P53991)

light-dependent NADPH production rate with FDX1 relative to FDX2 (FDX1/FDX2), PSI–FNR fractions (complex-associated FNR), 4 µM FDX [1]: 23 fold
light-dependent NADPH production rate with FDX1 relative to FDX2 (FDX1/FDX2), PSI fractions with added soluble FNR (0.5 µM), 4 µM FDX [2]: 2.6 fold
Substance: Ferredoxin 1 (FDX1), C. reinhardtii (natural protein)
